These are literature values, as cited in publication PMC7702019 (ACS chemical biology, 2020).

Bridges are numbered along the chain shown (N, C = ends). Where no end group is shown, it is not given here.

The conditions of the series: for amyloidogenicity: under normal conditions, rat and mouse amylin.

Take “mouse amylin: identical sequence to rat amylin”: the amyloidogenicity entry is “not amyloidogenic under normal conditions”.

Turning to “H18R: H18R substitution of human amylin (literature) (KCNTATCATQRLANFLVRSSNNFGAILSSTNVGSNTY; ends and bridges not checked; cysteine pairing not given here; UniProt P10997 34-70, looked up, variant H18R)”, the “rate of amyloid formation in vitro” value (substitution in human amylin, in vitro) is reported as “reduces the rate of amyloid formation”.

For “bovine amylin: bovine amylin (CGTATCETQRLANFLAPSSNKLGAIFSPTKMGSNTY; ends and bridges not checked; cysteine pairing not given here; UniProt Q28207 37-72, looked up)”, the “amyloidogenicity relative to human amylin” value (porcine and bovine amylin) is on record as “much less amyloidogenic than human amylin”.

In the case of “rat amylin: contains prolines at position 25, 28, and 29 and a H18R replacement relative to human amylin”, the amyloidogenicity entry was “not amyloidogenic under normal conditions”. Also, the “amyloid formation in vitro” value (in vitro, reference not given) is listed as “form amyloid in vitro, but only at very high non-physiological conditions”.

Regarding “Pramlintide: triple mutant of human amylin with A25, S28, and S29 replaced by Pro (KCNTATCATQRLANFLVHSSNNFGPILPPTNVGSNTY-NH2; disulfide 2-7; UniProt P10997 34-70, looked up, variant A25P S28P S29P)”, the amyloidogenicity in vitro result (pramlintide, reference not given) is “not amyloidogenic in vitro, except at high concentrations”.
